The values that follow are results of earlier work, collected in PMC8859281.

pKi: −log10 of the molar value.

The term pKi denotes the Ki on a negative log10 scale, so that one unit is a factor of ten.

In data set [1] the target is prokineticin receptor 2 (Homo sapiens) (UniProt Q8NFJ6).
Data set [2] deals with prokineticin receptor 1 (Homo sapiens) (UniProt Q8TCW9).
The target in data set [3] is κ-opioid receptor (UniProt P41145).
Chain of κ-opioid receptor (P41145 whole entry): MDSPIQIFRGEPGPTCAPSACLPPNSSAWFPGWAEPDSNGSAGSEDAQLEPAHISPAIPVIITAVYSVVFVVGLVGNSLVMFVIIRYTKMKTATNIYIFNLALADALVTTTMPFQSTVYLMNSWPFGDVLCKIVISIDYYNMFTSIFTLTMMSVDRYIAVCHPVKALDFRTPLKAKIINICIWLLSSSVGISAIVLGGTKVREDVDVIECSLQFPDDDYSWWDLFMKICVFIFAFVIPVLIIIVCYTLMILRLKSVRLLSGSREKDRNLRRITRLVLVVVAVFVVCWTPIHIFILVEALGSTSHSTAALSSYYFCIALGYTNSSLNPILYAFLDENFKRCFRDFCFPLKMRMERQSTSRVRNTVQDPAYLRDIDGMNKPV

Chain of MIT1 (P25687 whole entry): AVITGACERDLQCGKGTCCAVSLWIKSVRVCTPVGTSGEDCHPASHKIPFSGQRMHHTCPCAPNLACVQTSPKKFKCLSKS
Chain of prokineticin receptor 2 (Homo sapiens) (Q8NFJ6 whole entry): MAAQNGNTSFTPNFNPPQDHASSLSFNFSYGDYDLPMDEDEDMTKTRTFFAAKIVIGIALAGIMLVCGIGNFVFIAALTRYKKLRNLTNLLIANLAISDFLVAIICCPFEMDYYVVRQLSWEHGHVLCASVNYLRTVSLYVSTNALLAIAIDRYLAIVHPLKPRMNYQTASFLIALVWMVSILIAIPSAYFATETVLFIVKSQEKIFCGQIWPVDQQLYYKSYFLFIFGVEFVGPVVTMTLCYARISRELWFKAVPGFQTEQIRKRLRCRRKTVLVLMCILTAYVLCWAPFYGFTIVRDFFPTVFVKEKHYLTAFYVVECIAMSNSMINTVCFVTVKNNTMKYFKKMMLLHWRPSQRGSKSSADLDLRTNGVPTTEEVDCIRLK
Chain of prokineticin receptor 1 (Homo sapiens) (Q8TCW9 whole entry): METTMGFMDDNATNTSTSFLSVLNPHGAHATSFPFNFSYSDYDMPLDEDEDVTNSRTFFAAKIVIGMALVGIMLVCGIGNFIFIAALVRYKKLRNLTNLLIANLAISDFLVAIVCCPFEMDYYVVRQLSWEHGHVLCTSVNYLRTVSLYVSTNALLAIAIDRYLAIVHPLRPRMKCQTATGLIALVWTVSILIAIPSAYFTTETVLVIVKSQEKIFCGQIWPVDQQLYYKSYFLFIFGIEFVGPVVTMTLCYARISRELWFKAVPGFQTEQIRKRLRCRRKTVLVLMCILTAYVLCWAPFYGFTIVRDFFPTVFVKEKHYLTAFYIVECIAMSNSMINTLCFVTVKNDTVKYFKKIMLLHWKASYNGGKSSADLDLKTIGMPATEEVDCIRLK

Regarding MIT1 (from UniProt P25687), the pKi in data set [1] is 9.17; in data set [2], 8.39.

As to dynorphin A 1-17 (from UniProt P01213), in data set [3], the pKi is 9.55.
